The values that follow come from patent US20150017095A1 (AbbVie / Abbott, published 2015).

Test [1] has as its target T1, Recombinant Human β-NGF (human, UniProt P01138 122-239, limits assumed). The experiment in a line: BIACORE SPR, antibody captured, antigen in flow. As for the experimental part:
(§1) The BIACORE assay (Biacore, Inc, Piscataway, N.J.) determines the affinity of antibodies or DVD-Ig with kinetic measurements of on-rate and off-rate constants. […] All chemicals are obtained from Biacore® AB (Uppsala, Sweden) or otherwise from a different source as described in the text. For example, approximately 5000 RU of goat anti-mouse IgG, (Fcγ), fragment specific polyclonal antibody (Pierce Biotechnology Inc, Rockford, Ill.) diluted in 10 mM sodium acetate (pH 4.5) is directly immobilized across a CM5 research grade biosensor chip using a standard amine coupling kit according to manufacturer's instructions and procedures at 25 μg/ml. Unreacted moieties on the biosensor surface are blocked with ethanolamine. Modified carboxymethyl dextran surface in flowcell 2 and 4 is used as a reaction surface. Unmodified carboxymethyl dextran without goat anti-mouse IgG in flow cell 1 and 3 is used as the reference surface. For kinetic analysis, rate equations derived from the 1:1 Langmuir binding model are fitted simultaneously to association and dissociation phases of all eight injections (using global fit analysis) with the use of Biaevaluation 4.0.1 software. Purified antibodies or DVD-Ig are diluted in HEPES-buffered saline for capture across goat anti-mouse IgG specific reaction surfaces. Antibodies or DVD-Ig to be captured as a ligand (25 μg/m) are injected over reaction matrices at a flow rate of 5 μl/min. The association and dissociation rate constants, kₒₙ (M⁻¹s⁻¹) and koff (s⁻¹) are determined under a continuous flow rate of 25 μl/min. Rate constants are derived by making kinetic binding measurements at different antigen concentrations ranging from 10-200 nM. The equilibrium dissociation constant (M) of the reaction between antibodies or DVD-Igs and the target antigen is then calculated from the kinetic rate constants by the following formula: KD=koff/kₒₙ. Binding is recorded as a function of time and kinetic rate constants are calculated.
Background: SPR reads the build-up and loss of mass on a sensor chip optically.

Test [2] addresses T1, Recombinant Human β-NGF. As to the kind of experiment: BIACORE SPR, antibody captured, antigen in flow; Biacore, antibody captured, 25 C, HBS-EP. The procedure: as §1, with “For kinetic analysis, rate equations derived from the 1:1 Langmuir binding model are fitted simultaneously to association and dissociation phases of all eight injections (using global fit analysis) with the use of Biaevaluation 4.0.1 software. Purified antibodies or DVD-Ig are diluted in HEPES-buffered saline for capture across goat anti-mouse IgG specific reaction surfaces. Antibodies or DVD-Ig to be captured as a ligand (25 μg/m) are injected over reaction matrices at a flow rate of 5 μl/min.” left out, “Rate constants are derived by making kinetic binding measurements at different antigen concentrations ranging from 10-200 nM.” left out

Test [3] concerns the target T1, Recombinant Human β-NGF. As to the kind of experiment: direct bind ELISA, antigen coated on plate. As for the experimental part:
(§2) Enzyme Linked Immunosorbent Assays to screen for antibodies that bind a desired target antigen were performed as follows. High bind ELISA plates (Corning Costar #3369, Acton, Mass.) were coated with 100 μL/well of 10 μg/ml of desired target antigen (R&D Systems, Minneapolis, Minn.) or desired target antigen extra-cellular domain/FC fusion protein (R&D Systems, Minneapolis, Minn.) or monoclonal mouse anti-polyHistidine antibody (R&D Systems # MAB050, Minneapolis, Minn.) in phosphate buffered saline (10×PBS, Abbott Bioresearch Center, Media Prep# MPS-073, Worcester, Mass.) overnight at 4° C. Plates were washed four times with PBS containing 0.02% Tween 20. Plates were blocked by the addition of 300 μL/well blocking solution (non-fat dry milk powder, various retail suppliers, diluted to 2% in PBS) for ½ hour at room temperature. Plates were washed four times after blocking with PBS containing 0.02% Tween 20.
(§3) Plates were washed 4 times with PBS containing 0.02% Tween 20.
(§4) One hundred microliters of enhanced TMB solution (Neogen Corp. #308177, K Blue, Lexington, Ky.) was added to each well and incubated for 10 minutes at room temperature. The reaction was stopped by the addition of 50 μL 1N sulphuric acid.
A general note: An ELISA detects its analyte on a solid surface through an enzyme-linked reagent.

Test [4] concerns the target T1, Recombinant Human β-NGF. The experiment in a line: BIACORE SPR, DVD-Ig captured, antigen in flow (N-terminal VD). The procedure:
as §1

In test [5] the target is T1, Recombinant Human β-NGF. The experiment in a line: direct bind ELISA, antigen coated on plate (N-terminal VD). As for the experimental part:
as §2, §3, §4

The target in test [6] is T2, Recombinant Human IL-1β (human, UniProt P01584 117-269).
T2 construct: also called IL-1b; IL-1B
As to the kind of experiment: BIACORE SPR, antibody captured, antigen in flow. The procedure:
as §1

Test [7] concerns the target T2, Recombinant Human IL-1β. As to the kind of experiment: direct bind ELISA, antigen coated on plate. As for the experimental part:
as §2, §3, §4

For test [8], the target named is T3, Recombinant Human VEGF (human, UniProt P15692-4 27-191).
T3 construct: also called VEGF165
T3 sequence (P15692 other isoform, or with tags, fused parts or gaps limits assumed): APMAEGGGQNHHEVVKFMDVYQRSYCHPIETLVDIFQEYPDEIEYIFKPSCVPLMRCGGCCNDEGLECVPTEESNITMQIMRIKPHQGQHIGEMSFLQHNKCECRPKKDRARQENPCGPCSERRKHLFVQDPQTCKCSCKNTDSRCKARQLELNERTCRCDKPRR
As to the kind of experiment: BIACORE SPR, DVD-Ig captured, antigen in flow (N-terminal VD). The procedure: as §1

The target of test [9] is T3, Recombinant Human VEGF. As to the kind of experiment: direct bind ELISA, antigen coated on plate (N-terminal VD). The procedure:
as §2, §3, §4

T1 sequence (P01138 122-239 limits assumed): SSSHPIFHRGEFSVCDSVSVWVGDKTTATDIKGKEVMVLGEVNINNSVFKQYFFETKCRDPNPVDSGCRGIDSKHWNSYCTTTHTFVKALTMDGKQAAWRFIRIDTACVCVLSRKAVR

B1: AB020 anti-NGF parent antibody (antibody, human IgG1, V domains shown)
VH: QVQLQESGPGLVKPSETLSLTCTVSGFSLIGYDLNWIRQPPGKGLEWIGIIWGDGTTDYNSAVKSRVTISKDTSKNQFSLKLSSVTAADTAVYYCARGGYWYATSYYFDYWGQGTLVTVSS
VL: DIQMTQSPSSLSASVGDRVTITCRASQSISNNLNWYQQKPGKAPKLLIYYTSRFHSGVPSRFSGSGSGTDFTFTISSLQPEDIATYYCQQEHTLPYTFGQGTKLEIKR
With B1, in the test with Recombinant Human β-NGF [1], the koff (commonly a measure of how fast the partners let go of each other) was 0.000112 s⁻¹ and the kon (as a rule, a measure of how fast the partners come together) worked out at 261000 M⁻¹ s⁻¹. For the same molecule, the Kd (in general, the constant that tells how readily two partners part at equilibrium) with Recombinant Human β-NGF [2] worked out at 428 pM. For the same molecule, the EC50 – broadly, the concentration at which the effect is half-maximal – with Recombinant Human β-NGF [3] came to 2590 pM.

B2: DVD164 (NGF / PGE2 DVD-Ig) (bispecific antibody)
VH: QVQLQESGPGLVKPSETLSLTCTVSGFSLIGYDLNWIRQPPGKGLEWIGIIWGDGTTDYNSAVKSRVTISKDTSKNQFSLKLSSVTAADTAVYYCARGGYWYATSYYFDYWGQGTLVTVSSASTKGPEVQLVQSGAEVKKPGASVKVSCKASGYTFTKYWLGWVRQAPGQGLEWMGDIYPGYDYTHYNEKFKDRVTLTTDTSTSTAYMELRSLRSDDTAVYYCARSDGSSTYWGQGTLVTVSS
VL: DIQMTQSPSSLSASVGDRVTITCRASQSISNNLNWYQQKPGKAPKLLIYYTSRFHSGVPSRFSGSGSGTDFTFTISSLQPEDIATYYCQQEHTLPYTFGQGTKLEIKRTVAAPDVLMTQTPLSLPVTPGEPASISCTSSQNIVHSNGNTYLEWYLQKPGQSPQLLIYKVSNRFSGVPDRFSGSGSGTDFTLKISRVEAEDVGVYYCFQVSHVPYTFGGGTKVEIKR
notes: Outer domain is AB020 (NGF), inner domain is AB048 (PGE2); also called VD164H; VD164L
For B2, in the test with Recombinant Human β-NGF [4], the Kd was determined as 248 pM, the koff amounted to 0.000103 s⁻¹ and the kon was determined as 414000 M⁻¹ s⁻¹. In the test with Recombinant Human β-NGF [5], the EC50 worked out at 1210 pM.

B3: AB032 anti-IL-1b parent antibody (antibody, human IgG1, V domains shown)
VH: QVQLVESGGGVVQPGRSLRLSCAASGFTFSVYGMNWVRQAPGKGLEWVAIIWYDGDNQYYADSVKGRFTISRDNSKNTLYLQMNGLRAEDTAVYYCARDLRTGPFDYWGQGTLVTVSS
VL: EIVLTQSPDFQSVTPKEKVTITCRASQSIGSSLHWYQQKPDQSPKLLIKYASQSFSGVPSRFSGSGSGTDFTLTINSLEAEDAAAYYCHQSSSLPFTFGPGTKVDIKR
Turning to B3, the Kd with Recombinant Human IL-1β [6] came out at 13.1 pM. Also, the EC50 in the test with Recombinant Human IL-1β [7] was 5270 pM.

B4: DVD162 (VEGF / PGE2 DVD-Ig) (bispecific antibody)
VH: EVQLVESGGGLVQPGGSLRLSCAASGYTFTNYGMNWVRQAPGKGLEWVGWINTYTGEPTYAADFKRRFTFSLDTSKSTAYLQMNSLRAEDTAVYYCAKYPHYYGSSHWYFDVWGQGTLVTVSSASTKGPEVQLVQSGAEVKKPGASVKVSCKASGYTFTKYWLGWVRQAPGQGLEWMGDIYPGYDYTHYNEKFKDRVTLTTDTSTSTAYMELRSLRSDDTAVYYCARSDGSSTYWGQGTLVTVSS
VL: DIQMTQSPSSLSASVGDRVTITCSASQDISNYLNWYQQKPGKAPKVLIYFTSSLHSGVPSRFSGSGSGTDFTLTISSLQPEDFATYYCQQYSTVPWTFGQGTKVEIKRTVAAPDVLMTQTPLSLPVTPGEPASISCTSSQNIVHSNGNTYLEWYLQKPGQSPQLLIYKVSNRFSGVPDRFSGSGSGTDFTLKISRVEAEDVGVYYCFQVSHVPYTFGGGTKVEIKR
notes: Outer domain is AB014 (VEGF), inner domain is AB048 (PGE2); also called VD162H; VD162L
Consider B4, for which, in the test with Recombinant Human VEGF [8], the Kd was determined as 266 pM, the koff came out at 0.000131 s⁻¹ and the kon turned out to be 490000 M⁻¹ s⁻¹. The EC50 in the test with Recombinant Human VEGF [9] stood at 1790 pM.
